# Test results taken from the Human Domainome abundance scans (Beltran et al. 2025).
# ± gives the uncertainty stated by the source.
# B1: Intersectin-2, residues 1129 to 1183; numbered along this chain, Q9NZM3 (parent)
# chain: VCQVIAMYDYAANNEDELSFSKGQLINVMNKDDPDWWQGEINGVTGLFPSNYVKM
# Variants of: B1
# Experiment: abundance fitness (aPCA) (normalised: wild type 0, dead -1); higher = more abundant; growth selection in yeast, the domain comes from the species named
# Details: Homo sapiens
row,Variant,abundance fitness
1,VCQVIAMYDYAANNEDELSFSKGQLINVMNKDDPDWWQGEINGVTGNFPSNYVKM,-0.086 ± 0.061
2,VCQVIAMYDYAANNEDELSFSKGQLINVMNKDDPDWWQGEINGVTGGFPSNYVKM,-0.023 ± 0.037
3,VCQVIAMYDYAANNEDELSFSKGQLINVMNKDDPDWWQGEINGVTGDFPSNYVKM,-0.142 ± 0.041
4,VCQVIAMYDYAANNEDELSFSKGQLINVMNKDDPDWWQGEINGVTGKFPSNYVKM,0.039 ± 0.052
5,VCQVIAMYDYAANNEDELSFSKGQLINVMNKDDPDWWQGEINGVTGHFPSNYVKM,-0.061 ± 0.068
6,VCQVIAMYDYAANNEDELSFSKGQLINVMNKDDPDWWQGEINGVTGPFPSNYVKM,-0.257 ± 0.05
7,VCQVIAMYDYAANNEDELSFSKGQLINVMNKDDPDWWQGEINGVTGMFPSNYVKM,-0.128 ± 0.043
8,VCQVIAMYDYAANNEDELSFSKGQLINVMNKDDPDWWQGEINGVTGAFPSNYVKM,-0.007 ± 0.031
9,VCQVIAMYDYAANNEDELSFSKGQLINVMNKDDPDWWQGEINGVTGTFPSNYVKM,-0.014 ± 0.043
10,VCQVIAMYDYAANNEDELSFSKGQLINVMNKDDPDWWQGEINGVTGIFPSNYVKM,-0.183 ± 0.067
11,VCQVIAMYDYAANNEDELSFSKGQLINVMNKDDPDWWQGEINGVTGWFPSNYVKM,-0.061 ± 0.033
12,VCQVIAMYDYAANNEDELSFSKGQLINVMNKDDPDWWQGEINGVTGQFPSNYVKM,-0.019 ± 0.05
13,VCQVIAMYDYAANNEDELSFSKGQLINVMNKDDPDWWQGEINGVTGSFPSNYVKM,-0.011 ± 0.03
14,VCQVIAMYDYAANNEDELSFSKGQLINVMNKDDPDWWQGEINGVTGYFPSNYVKM,-0.04 ± 0.049
15,VCQVIAMYDYAANNEDELSFSKGQLINVMNKDDPDWWQGEINGVTGCFPSNYVKM,-0.185 ± 0.057
16,VCQVIAMYDYAANNEDELSFSKGQLINVMNKDDPDWWQGEINGVTGLFISNYVKM,-0.49 ± 0.11
17,VCQVIAMYDYAANNEDELSFSKGQLINVMNKDDPDWWQGEINGVTGLFASNYVKM,-0.193 ± 0.052
18,VCQVIAMYDYAANNEDELSFSKGQLINVMNKDDPDWWQGEINGVTGLFMSNYVKM,-0.086 ± 0.05
19,VCQVIAMYDYAANNEDELSFSKGQLINVMNKDDPDWWQGEINGVTGLFTSNYVKM,-0.746 ± 0.099
20,VCQVIAMYDYAANNEDELSFSKGQLINVMNKDDPDWWQGEINGVTGLFQSNYVKM,-0.129 ± 0.049
21,VCQVIAMYDYAANNEDELSFSKGQLINVMNKDDPDWWQGEINGVTGLFRSNYVKM,0.017 ± 0.039
22,VCQVIAMYDYAANNEDELSFSKGQLINVMNKDDPDWWQGEINGVTGLFKSNYVKM,-0.017 ± 0.041
23,VCQVIAMYDYAANNEDELSFSKGQLINVMNKDDPDWWQGEINGVTGLFYSNYVKM,-0.104 ± 0.097
24,VCQVIAMYDYAANNEDELSFSKGQLINVMNKDDPDWWQGEINGVTGLFVSNYVKM,-0.782 ± 0.059

row,Variant,abundance fitness
1,VCQVIAMYDYAANNEDELSFSKGQLINVMNKDDPDWWQGEINGVTGLFLSNYVKM,-0.143 ± 0.032
2,VCQVIAMYDYAANNEDELSFSKGQLINVMNKDDPDWWQGEINGVTGLFFSNYVKM,-0.358 ± 0.032
3,VCQVIAMYDYAANNEDELSFSKGQLINVMNKDDPDWWQGEINGVTGLFNSNYVKM,-0.106 ± 0.062
4,VCQVIAMYDYAANNEDELSFSKGQLINVMNKDDPDWWQGEINGVTGLFESNYVKM,-0.442 ± 0.037
5,VCQVIAMYDYAANNEDELSFSKGQLINVMNKDDPDWWQGEINGVTGLFDSNYVKM,-0.482 ± 0.088
6,VCQVIAMYDYAANNEDELSFSKGQLINVMNKDDPDWWQGEINGVTGLFSSNYVKM,-0.195 ± 0.035
7,VCQVIAMYDYAANNEDELSFSKGQLINVMNKDDPDWWQGEINGVTGLFHSNYVKM,-0.1 ± 0.082
8,VCQVIAMYDYAANNEDELSFSKGQLINVMNKDDPDWWQGEINGVTGLFPCNYVKM,-0.139 ± 0.055
9,VCQVIAMYDYAANNEDELSFSKGQLINVMNKDDPDWWQGEINGVTGLFPANYVKM,-0.046 ± 0.043
10,VCQVIAMYDYAANNEDELSFSKGQLINVMNKDDPDWWQGEINGVTGLFPTNYVKM,-0.084 ± 0.045
11,VCQVIAMYDYAANNEDELSFSKGQLINVMNKDDPDWWQGEINGVTGLFPMNYVKM,0.004 ± 0.052
12,VCQVIAMYDYAANNEDELSFSKGQLINVMNKDDPDWWQGEINGVTGLFPNNYVKM,-0.1 ± 0.044
13,VCQVIAMYDYAANNEDELSFSKGQLINVMNKDDPDWWQGEINGVTGLFPPNYVKM,-0.015 ± 0.031
14,VCQVIAMYDYAANNEDELSFSKGQLINVMNKDDPDWWQGEINGVTGLFPENYVKM,-0.266 ± 0.056
15,VCQVIAMYDYAANNEDELSFSKGQLINVMNKDDPDWWQGEINGVTGLFPINYVKM,-0.084 ± 0.066
16,VCQVIAMYDYAANNEDELSFSKGQLINVMNKDDPDWWQGEINGVTGLFPLNYVKM,-0.166 ± 0.03
17,VCQVIAMYDYAANNEDELSFSKGQLINVMNKDDPDWWQGEINGVTGLFPGNYVKM,-0.109 ± 0.038
18,VCQVIAMYDYAANNEDELSFSKGQLINVMNKDDPDWWQGEINGVTGLFPDNYVKM,-0.98 ± 0.16
19,VCQVIAMYDYAANNEDELSFSKGQLINVMNKDDPDWWQGEINGVTGLFPQNYVKM,-0.037 ± 0.039
20,VCQVIAMYDYAANNEDELSFSKGQLINVMNKDDPDWWQGEINGVTGLFPKNYVKM,-0.074 ± 0.055
21,VCQVIAMYDYAANNEDELSFSKGQLINVMNKDDPDWWQGEINGVPGLFPSNYVKM,-0.083 ± 0.038
22,VCQVIAMYDYAANNEDELSFSKGQLINVMNKDDPDWWQGEINGVKGLFPSNYVKM,-0.03 ± 0.04
23,VCQVIAMYDYAANNEDELSFSKGQLINVMNKDDPDWWQGEINGVEGLFPSNYVKM,-0.053 ± 0.038
24,VCQVIAMYDYAANNEDELSFSKGQLINVMNKDDPDWWQGEINGVDGLFPSNYVKM,-0.1 ± 0.056

row,Variant,abundance fitness
1,VCQVIAMYDYAANNEDELSFSKGQLINVMNKDDPDWWQGEINGVRGLFPSNYVKM,-0.076 ± 0.044
2,VCQVIAMYDYAANNEDELSFSKGQLINVMNKDDPDWWQGEINGVVGLFPSNYVKM,-0.092 ± 0.049
3,VCQVIAMYDYAANNEDELSFSKGQLINVMNKDDPDWWQGEINGVCGLFPSNYVKM,-0.087 ± 0.056
4,VCQVIAMYDYAANNEDELSFSKGQLINVMNKDDPDWWQGEINGVGGLFPSNYVKM,-0.042 ± 0.045
5,VCQVIAMYDYAANNEDELSFSKGQLINVMNKDDPDWWQGEINGVWGLFPSNYVKM,-0.153 ± 0.07
6,VCQVIAMYDYAANNEDELSFSKGQLINVMNKDDPDWWQGEINGVSGLFPSNYVKM,-0.003 ± 0.041
7,VCQVIAMYDYAANNEDELSFSKGQLINVMNKDDPDWWQGEINGVQGLFPSNYVKM,-0.024 ± 0.064
8,VCQVIAMYDYAANNEDELSFSKGQLINVMNKDDPDWWQGEINGVNGLFPSNYVKM,-0.062 ± 0.062
9,VCQVIAMYDYAANNEDELSFSKGQLINVMNKDDPDWWQGEINGVIGLFPSNYVKM,-0.103 ± 0.045
10,VCQVIAMYDYAANNEDELSFSKGQLINVMNKDDPDWWQGEINGVMGLFPSNYVKM,-0.145 ± 0.064
11,VCQVIAMYDYAANNEDELSFSKGQLINVMNKDDPDWWQGEINGVLGLFPSNYVKM,-0.031 ± 0.03
12,VCQVIAMYDYAANNEDELSFSKGQLINVMNKDDPDWWQGEINGVFGLFPSNYVKM,-0.051 ± 0.071
13,VCQVIAMYDYAANNEDELSFSKGQLINVMNKDDPDWWQGEINGVTGLPPSNYVKM,-0.718 ± 0.19
14,VCQVIAMYDYAANNEDELSFSKGQLINVMNKDDPDWWQGEINGVTGLHPSNYVKM,-0.937 ± 0.17
15,VCQVIAMYDYAANNEDELSFSKGQLINVMNKDDPDWWQGEINGVTGLSPSNYVKM,-0.775 ± 0.049
16,VCQVIAMYDYAANNEDELSFSKGQLINVMNKDDPDWWQGEINGVTGLKPSNYVKM,-1 ± 0.12
17,VCQVIAMYDYAANNEDELSFSKGQLINVMNKDDPDWWQGEINGVTGLAPSNYVKM,-0.69 ± 0.036
18,VCQVIAMYDYAANNEDELSFSKGQLINVMNKDDPDWWQGEINGVTGLEPSNYVKM,-0.834 ± 0.1
19,VCQVIAMYDYAANNEDELSFSKGQLINVMNKDDPDWWQGEINGVTGLWPSNYVKM,-1 ± 0.23
20,VCQVIAMYDYAANNEDELSFSKGQLINVMNKDDPDWWQGEINGVTGLTPSNYVKM,-0.85 ± 0.096
21,VCQVIAMYDYAANNEDELSFSKGQLINVMNKDDPDWWQGEINGVTGLNPSNYVKM,-1.17 ± 0.28
22,VCQVIAMYDYAANNEDELSFSKGQLINVMNKDDPDWWQGEINGVTGLIPSNYVKM,-0.085 ± 0.06
23,VCQVIAMYDYAANNEDELSFSKGQLINVMNKDDPDWWQGEINGVTGLVPSNYVKM,-0.027 ± 0.031
24,VCQVIAMYDYAANNEDELSFSKGQLINVMNKDDPDWWQGEINGVTGLGPSNYVKM,-0.945 ± 0.079

row,Variant,abundance fitness
1,VCQVIAMYDYAANNEDELSFSKGQLINVMNKDDPDWWQGEINGVTGLCPSNYVKM,-0.199 ± 0.047
2,VCQVIAMYDYAANNEDELSFSKGQLINVMNKDDPDWWQGEINGVTGLMPSNYVKM,-0.092 ± 0.052
3,VCQVIAMYDYAANNEDELSFSKGQLINVMNKDDPDWWQGEINGVTGLDPSNYVKM,-0.806 ± 0.17
4,VCQVIAMYDYAANNEDELSFSKGQLINVMNKDDPDWWQGEINGVTGLLPSNYVKM,0 ± 0.036
5,VCQVIAMYDYAANNEDELSFSKGQLINVMNKDDPDWWQGEINGVTGLQPSNYVKM,-0.778 ± 0.12
6,VCQVIAMYDYAANNEDELSFSKGQLINVMNKDDPDWWQGEINGVTGLYPSNYVKM,-0.898 ± 0.18
7,VCQVIAMYDYAANNEDELSFSKGQLINVMNKDDPDWWQGEINGVTMLFPSNYVKM,-1.06 ± 0.15
8,VCQVIAMYDYAANNEDELSFSKGQLINVMNKDDPDWWQGEINGVTKLFPSNYVKM,-0.1 ± 0.033
9,VCQVIAMYDYAANNEDELSFSKGQLINVMNKDDPDWWQGEINGVTILFPSNYVKM,-1.14 ± 0.22
10,VCQVIAMYDYAANNEDELSFSKGQLINVMNKDDPDWWQGEINGVTCLFPSNYVKM,-0.606 ± 0.068
11,VCQVIAMYDYAANNEDELSFSKGQLINVMNKDDPDWWQGEINGVTWLFPSNYVKM,-0.92 ± 0.083
12,VCQVIAMYDYAANNEDELSFSKGQLINVMNKDDPDWWQGEINGVTQLFPSNYVKM,-0.945 ± 0.082
13,VCQVIAMYDYAANNEDELSFSKGQLINVMNKDDPDWWQGEINGVTPLFPSNYVKM,-1.01 ± 0.17
14,VCQVIAMYDYAANNEDELSFSKGQLINVMNKDDPDWWQGEINGVTALFPSNYVKM,-0.137 ± 0.03
15,VCQVIAMYDYAANNEDELSFSKGQLINVMNKDDPDWWQGEINGVTDLFPSNYVKM,-0.799 ± 0.13
16,VCQVIAMYDYAANNEDELSFSKGQLINVMNKDDPDWWQGEINGVTTLFPSNYVKM,-0.788 ± 0.11
17,VCQVIAMYDYAANNEDELSFSKGQLINVMNKDDPDWWQGEINGVTRLFPSNYVKM,-0.318 ± 0.037
18,VCQVIAMYDYAANNEDELSFSKGQLINVMNKDDPDWWQGEINGVTHLFPSNYVKM,-1.05 ± 0.1
19,VCQVIAMYDYAANNEDELSFSKGQLINVMNKDDPDWWQGEINGVTSLFPSNYVKM,-0.764 ± 0.047
20,VCQVIAMYDYAANNEDELSFSKGQLINVMNKDDPDWWQGEINGVTLLFPSNYVKM,-0.701 ± 0.06
21,VCQVIAMYDYAANNEDELSFSKGQLINVMNKDDPDWWQGEINGVTNLFPSNYVKM,-0.483 ± 0.042
22,VCQVIAMYDYAANNEDELSFSKGQLINVMNKDDPDWWQGEINGVTFLFPSNYVKM,-0.864 ± 0.27
23,VCQVIAMYDYAANNEDELSFSKGQLINVMNKDDPDWWQGEINGVTYLFPSNYVKM,-0.807 ± 0.21
24,VCQVIAMYDYAANNEDELSFSKGQLINVMNKDDPDWWQGEINGVTELFPSNYVKM,-0.973 ± 0.056
